The source of these data is patent publication US10946092 (BEIJING MABWORKS BIOTECH, dated 2021).

By EC50 is commonly meant the concentration at which the effect is half-maximal.

For experiment [1], the target named is T1, recombinant mouse LAG3(ECD)-his (Sino Biological, Cat #: 53069-M08H) (mouse, UniProt Q61790 24-442).
T1 construct: extracellular domain; Bought protein; also called Mouse LAG3-his; not shown: his tag
T1 sequence (looked up): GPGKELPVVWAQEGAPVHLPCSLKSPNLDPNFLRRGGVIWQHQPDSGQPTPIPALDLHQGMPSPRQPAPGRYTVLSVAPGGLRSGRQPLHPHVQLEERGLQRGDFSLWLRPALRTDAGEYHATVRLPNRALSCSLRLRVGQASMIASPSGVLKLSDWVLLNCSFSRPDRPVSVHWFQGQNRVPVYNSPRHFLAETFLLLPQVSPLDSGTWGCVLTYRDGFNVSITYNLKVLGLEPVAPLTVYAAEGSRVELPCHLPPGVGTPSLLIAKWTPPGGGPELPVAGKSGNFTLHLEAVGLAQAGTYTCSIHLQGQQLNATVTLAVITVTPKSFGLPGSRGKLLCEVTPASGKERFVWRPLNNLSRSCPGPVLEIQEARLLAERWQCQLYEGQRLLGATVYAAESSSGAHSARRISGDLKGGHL
Briefly: ELISA, coated mouse LAG3-his. Here is the method: Species-cross-reactivity of the 12 LAG3 mAbs to monkey or mouse LAG3 was further tested by direct ELISA. Briefly, 50 µl of 500 ng/ml monkey LAG3(ECD)-hFc (ACRO, CN, Cat #: LA3-05252) or mouse LAG3-his (Sino Biological, CN, Cat #:53069-M08H) was coated on 96-well ELISA plates followed by incubation with 100 µl of serially diluted anti-LAG3 antibodies (starting from 40 µg/ml). Goat anti-mouse IgG conjugated with HRP (Sigma, US, Cat #: A9309-1 ml) was added then.
In general terms: In an ELISA, binding on a coated surface is turned into a signal by an enzyme label.

Experiment [2] has as its target T2, monkey (rhesus) LAG3 expressed on HEK293A cells (monkey (rhesus), UniProt A0A5F8A874 23-533).
T2 construct: whole, on cells; also called HEK293A/rh LAG3
T2 sequence: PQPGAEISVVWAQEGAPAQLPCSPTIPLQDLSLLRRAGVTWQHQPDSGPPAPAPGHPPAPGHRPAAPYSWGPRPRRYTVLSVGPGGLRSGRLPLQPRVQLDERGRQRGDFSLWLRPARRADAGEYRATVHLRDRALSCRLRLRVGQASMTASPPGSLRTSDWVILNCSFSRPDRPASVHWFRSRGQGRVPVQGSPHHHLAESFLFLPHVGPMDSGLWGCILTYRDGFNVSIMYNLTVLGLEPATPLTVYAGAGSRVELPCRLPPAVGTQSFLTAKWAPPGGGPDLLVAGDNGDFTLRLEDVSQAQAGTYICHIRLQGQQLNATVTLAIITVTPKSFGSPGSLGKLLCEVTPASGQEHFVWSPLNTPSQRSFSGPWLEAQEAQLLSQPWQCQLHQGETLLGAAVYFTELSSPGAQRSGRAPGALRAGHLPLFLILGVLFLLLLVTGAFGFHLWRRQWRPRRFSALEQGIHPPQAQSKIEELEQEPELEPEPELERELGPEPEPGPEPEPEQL
Description: FACS on HEK293A/rh LAG3 cells. How it is done:
Briefly, 10^5 HEK293A cells in 50 μl PBS buffers were seeded into each well of the 96-well plates and then added with 50 μl of serially diluted anti-LAG3 antibodies (5-fold dilution, starting from 40 μg/ml). After incubated at 4° C. for 1 hour, plates were washed 3 times with PBST. Then, an APC coupled Goat Anti-Mouse IgG (BioLegend, US, Cat #: 405308) diluted 500× was added to the plates. After incubation at 4° C. for 1 hour, the plates were washed with PBS for 3 times and then cell fluorescence was monitored using a FACS machine (BD).

For experiment [3], the target named is T3, hLAG-3-hIg fusion protein (human LAG-3 extracellular domain fused to human Fc); Sino Biological, Cat #: … (human, UniProt P18627 23-450).
T3 construct: extracellular domain; Bought protein; also called LAG3 fusion protein; human LAG3(ECD)-hFc; not shown: human Fc
T3 sequence (looked up): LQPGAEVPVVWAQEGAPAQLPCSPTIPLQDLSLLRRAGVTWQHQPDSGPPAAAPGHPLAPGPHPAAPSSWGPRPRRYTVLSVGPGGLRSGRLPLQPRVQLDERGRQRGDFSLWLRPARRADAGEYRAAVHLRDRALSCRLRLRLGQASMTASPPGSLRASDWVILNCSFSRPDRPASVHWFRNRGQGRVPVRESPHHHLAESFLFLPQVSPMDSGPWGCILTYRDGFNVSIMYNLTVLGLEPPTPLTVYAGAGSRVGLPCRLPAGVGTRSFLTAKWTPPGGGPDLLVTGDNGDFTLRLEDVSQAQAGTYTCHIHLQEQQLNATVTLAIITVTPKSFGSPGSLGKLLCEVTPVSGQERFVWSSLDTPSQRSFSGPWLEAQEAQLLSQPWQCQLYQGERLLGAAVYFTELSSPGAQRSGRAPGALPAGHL
Briefly: FACS blocking assay; antibody titrated against 10 µg/ml hLAG-3-hIg binding to MHC II on Daudi cells. How it is done: The mixtures were then added and incubated with 2 ×10^5 Daudi cells in 100 μl PBS buffer at 4° C. for 30 minutes. The cells were pelleted (three minutes, 400×g), washed twice with 1×PBS buffer and repelleted, and added and incubated with a recombinant PE-labeled F(ab')2 anti-hIgG Fc (1:200, Life Technologies, USA, Cat #: H10104) at 4° C. for 30 minutes, and washed once with 1×PBS. Analysis of […] binding was carried out with the FACS flow cytometer (BD Bioscience).

B1: mouse anti-LAG3 monoclonal antibody 134G10 (antibody, V domains shown)
VH: EVQLVESGGDLVKPGGSLKLSCAASGFTFSSFGMSWVRQTPDKRLEWVGIISSGGTYTFYPDILKGRFTISRDNAKNTLYLQMSSLKSEDTAMYYCARVYSDYDGRFDYWGQGTTLTVSS
VL: DIVMTQSPSSLSVSAGEKVTMNCKSSQSLLNSGNQKNYLAWYQQKPGQPPKLLIYGASTRESGVPDRFTGSGSGTDFTLTISSVQAEDLAVYYCQNDHSYPLTFGAGTKLELK
On to B1, for which the binding result in experiment [1] is “no binding (tested: starting from 40 µg/ml)”. The EC50 in experiment [2] is 6.5 nM; in experiment [3] it was 9.3 nM.

B2: mouse anti-LAG3 monoclonal antibody 101F4 (antibody, V domains shown)
VH: EVQLEQSGAELVRPGASVTLSCKASGYTFTDYEMHWVKQTPVYGLEWMGAIDPETGGIVYNQRFKGKAILTADKSSSTAYMELRSLTSEDSAVYYCTGAGWGYWGQGTTLTVSS
VL: DIVITQSPSSMYASLGERVTITCKASQDINSYLSWFQQKPGKSPKTLIYRANRLLDGVPSRFSGSGSGQDYSLTISSLEFEDMGLYYCLQYDEFPFTFGSGTKLEIK
B2: the binding result in experiment [1] is “no binding (tested: starting from 40 µg/ml)”. Also, the figures for the concentration giving a half-maximal response (EC50) in experiment [2] and in experiment [3] were 0.39 nM and 13 nM, respectively.
